Assay results published in the supplement of paper PMC10065799, “High-throughput profiling of sequence recognition by tyrosine kinases and SH2 domains using bacterial peptide display” (eLife, 2023).

Columns and labels:
[1] = molecular target: c-Src SH2; assay: SH2 binding enrichment of the phosphorylated peptide, bacterial display (enrichment ratio); higher = better substrate or ligand; peptides without Tyr show the background
[2] = molecular target: SHP2-C SH2; assay: as above
[3] = molecular target: Grb2 SH2 (UniProt P62993); assay: as above
[4] = molecular target: FGFR3 (UniProt P22607); assay: phosphorylation enrichment, bacterial display (enrichment ratio); higher = better substrate or ligand; peptides without Tyr show the background
[5] = test system: Fer (mouse); assay: as above
[6] = molecular target: Jak2 (UniProt O60674); assay: as above
[7] = test system: AncSZ; assay: as above
[8] = molecular target: FGFR1 (UniProt P11362); assay: as above
[9] = molecular target: MERTK (UniProt Q12866); assay: as above
[10] = test system: c-Abl (mouse); assay: as above
[11] = molecular target: EPHB1 (UniProt P54762); assay: as above
[12] = molecular target: Hck (UniProt P08631); assay: as above
[13] = test system: c-Src; assay: as above
[14] = molecular target: Fes (UniProt P07332); assay: as above
[15] = molecular target: EPHB2 (UniProt P29323); assay: as above
[16] = molecular target: Fyn (UniProt P06241); assay: as above
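Wherever SH2 binding enrichment of the phosphorylated peptide, bacterial display is given: peptide library displayed on the E. coli surface as eCPX fusions, selected cells deep-sequenced, score is each peptide's frequency after selection divided by its frequency in the input.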
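Wherever phosphorylation enrichment, bacterial display is given: 11-residue human phosphosite peptides and single-mutation variants displayed on the E. coli surface, counted by deep sequencing, each peptide's frequency after selection divided by its frequency in the unselected input library; frequency after pTyr selection over input frequency; kinase dosed for 20-30% of maximal phosphorylation in three min.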

Jak2, sequence (O60674 whole entry, looked up): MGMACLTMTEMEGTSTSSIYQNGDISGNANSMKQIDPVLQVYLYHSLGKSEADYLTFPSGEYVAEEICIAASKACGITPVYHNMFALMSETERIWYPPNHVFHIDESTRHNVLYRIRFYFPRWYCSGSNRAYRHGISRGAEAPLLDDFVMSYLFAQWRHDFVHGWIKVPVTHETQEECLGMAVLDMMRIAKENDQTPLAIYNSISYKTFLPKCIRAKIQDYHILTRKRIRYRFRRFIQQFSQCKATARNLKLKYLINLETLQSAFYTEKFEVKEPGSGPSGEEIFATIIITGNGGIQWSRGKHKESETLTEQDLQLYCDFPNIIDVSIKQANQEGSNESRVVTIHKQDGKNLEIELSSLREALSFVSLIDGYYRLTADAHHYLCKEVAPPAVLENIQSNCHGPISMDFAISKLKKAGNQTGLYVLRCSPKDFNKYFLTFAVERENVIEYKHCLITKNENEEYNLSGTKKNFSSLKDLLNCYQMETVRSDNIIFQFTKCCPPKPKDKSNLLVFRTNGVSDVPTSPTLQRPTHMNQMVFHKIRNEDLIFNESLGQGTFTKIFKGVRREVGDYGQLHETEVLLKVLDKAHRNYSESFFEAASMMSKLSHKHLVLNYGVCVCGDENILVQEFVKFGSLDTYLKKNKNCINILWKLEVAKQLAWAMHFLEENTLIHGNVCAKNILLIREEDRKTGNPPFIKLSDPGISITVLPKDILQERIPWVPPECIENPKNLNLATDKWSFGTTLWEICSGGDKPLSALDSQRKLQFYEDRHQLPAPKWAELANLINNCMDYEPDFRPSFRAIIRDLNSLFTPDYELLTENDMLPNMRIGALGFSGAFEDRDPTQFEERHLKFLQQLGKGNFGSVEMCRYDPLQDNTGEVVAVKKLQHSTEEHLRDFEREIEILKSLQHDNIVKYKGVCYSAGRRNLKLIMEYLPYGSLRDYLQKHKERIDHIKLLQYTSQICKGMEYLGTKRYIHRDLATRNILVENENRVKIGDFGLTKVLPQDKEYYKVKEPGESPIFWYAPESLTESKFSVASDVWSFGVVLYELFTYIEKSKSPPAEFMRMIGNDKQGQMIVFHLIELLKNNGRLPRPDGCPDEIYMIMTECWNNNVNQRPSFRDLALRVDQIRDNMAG
Hck, sequence (P08631 whole entry, looked up): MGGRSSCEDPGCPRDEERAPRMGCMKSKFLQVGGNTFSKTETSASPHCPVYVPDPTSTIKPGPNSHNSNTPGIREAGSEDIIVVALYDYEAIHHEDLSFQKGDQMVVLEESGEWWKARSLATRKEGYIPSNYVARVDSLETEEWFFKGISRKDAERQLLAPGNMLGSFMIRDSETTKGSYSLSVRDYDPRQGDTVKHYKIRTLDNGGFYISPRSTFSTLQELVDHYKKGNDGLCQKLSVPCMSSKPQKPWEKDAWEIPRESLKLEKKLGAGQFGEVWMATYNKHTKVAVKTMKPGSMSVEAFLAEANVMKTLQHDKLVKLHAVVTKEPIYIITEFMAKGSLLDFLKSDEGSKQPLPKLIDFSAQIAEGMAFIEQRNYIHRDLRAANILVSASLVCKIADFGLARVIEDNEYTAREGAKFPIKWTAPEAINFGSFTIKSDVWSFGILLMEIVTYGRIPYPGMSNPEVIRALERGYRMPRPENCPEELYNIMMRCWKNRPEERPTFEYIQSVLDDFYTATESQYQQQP
Fes, sequence (P07332 whole entry, looked up): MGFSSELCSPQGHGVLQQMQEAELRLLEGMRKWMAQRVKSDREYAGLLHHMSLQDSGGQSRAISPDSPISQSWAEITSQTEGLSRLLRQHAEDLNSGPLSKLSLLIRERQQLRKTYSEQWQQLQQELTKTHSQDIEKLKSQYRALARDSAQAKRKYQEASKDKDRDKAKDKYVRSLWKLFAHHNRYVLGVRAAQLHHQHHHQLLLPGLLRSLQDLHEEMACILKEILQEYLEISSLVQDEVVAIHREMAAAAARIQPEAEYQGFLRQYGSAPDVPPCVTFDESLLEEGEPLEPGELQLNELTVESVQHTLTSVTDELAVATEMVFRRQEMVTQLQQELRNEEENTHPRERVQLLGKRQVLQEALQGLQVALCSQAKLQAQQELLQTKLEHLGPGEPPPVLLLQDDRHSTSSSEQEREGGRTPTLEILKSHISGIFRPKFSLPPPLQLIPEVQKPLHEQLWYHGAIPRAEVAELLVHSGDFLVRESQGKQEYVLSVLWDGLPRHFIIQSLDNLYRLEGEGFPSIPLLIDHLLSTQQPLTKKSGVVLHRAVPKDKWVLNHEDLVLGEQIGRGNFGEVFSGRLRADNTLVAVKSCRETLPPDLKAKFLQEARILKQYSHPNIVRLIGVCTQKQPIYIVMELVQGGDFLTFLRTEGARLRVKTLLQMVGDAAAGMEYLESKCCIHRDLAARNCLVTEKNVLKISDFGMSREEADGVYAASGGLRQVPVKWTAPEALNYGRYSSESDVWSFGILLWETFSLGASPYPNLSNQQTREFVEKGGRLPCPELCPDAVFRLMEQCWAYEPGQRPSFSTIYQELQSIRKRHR
EPHB1, sequence (P54762 whole entry, looked up): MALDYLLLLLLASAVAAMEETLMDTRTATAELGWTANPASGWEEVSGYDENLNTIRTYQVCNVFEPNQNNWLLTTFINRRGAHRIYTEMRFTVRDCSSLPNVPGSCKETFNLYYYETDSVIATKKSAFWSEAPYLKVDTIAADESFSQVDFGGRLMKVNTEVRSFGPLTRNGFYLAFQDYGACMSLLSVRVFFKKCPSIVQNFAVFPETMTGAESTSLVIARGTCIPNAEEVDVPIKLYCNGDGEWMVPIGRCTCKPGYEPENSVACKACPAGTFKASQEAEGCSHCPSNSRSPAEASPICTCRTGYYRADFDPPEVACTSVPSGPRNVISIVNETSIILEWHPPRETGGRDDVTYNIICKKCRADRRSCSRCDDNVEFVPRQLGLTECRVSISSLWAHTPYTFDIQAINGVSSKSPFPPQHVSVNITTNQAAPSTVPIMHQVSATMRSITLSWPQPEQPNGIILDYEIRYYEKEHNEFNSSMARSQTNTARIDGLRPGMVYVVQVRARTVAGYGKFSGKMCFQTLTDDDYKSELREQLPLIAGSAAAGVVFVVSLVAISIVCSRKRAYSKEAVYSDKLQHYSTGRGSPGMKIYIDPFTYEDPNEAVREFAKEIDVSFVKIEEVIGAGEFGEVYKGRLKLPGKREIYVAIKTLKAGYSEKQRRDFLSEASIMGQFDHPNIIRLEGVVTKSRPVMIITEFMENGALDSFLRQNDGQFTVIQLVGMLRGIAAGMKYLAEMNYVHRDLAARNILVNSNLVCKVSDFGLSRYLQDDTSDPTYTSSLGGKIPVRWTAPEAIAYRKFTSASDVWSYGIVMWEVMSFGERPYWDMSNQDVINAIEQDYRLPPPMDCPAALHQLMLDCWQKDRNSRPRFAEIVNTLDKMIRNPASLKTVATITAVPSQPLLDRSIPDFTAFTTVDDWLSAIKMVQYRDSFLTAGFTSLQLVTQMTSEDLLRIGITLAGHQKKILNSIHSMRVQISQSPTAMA
FGFR1, sequence (P11362 whole entry, looked up): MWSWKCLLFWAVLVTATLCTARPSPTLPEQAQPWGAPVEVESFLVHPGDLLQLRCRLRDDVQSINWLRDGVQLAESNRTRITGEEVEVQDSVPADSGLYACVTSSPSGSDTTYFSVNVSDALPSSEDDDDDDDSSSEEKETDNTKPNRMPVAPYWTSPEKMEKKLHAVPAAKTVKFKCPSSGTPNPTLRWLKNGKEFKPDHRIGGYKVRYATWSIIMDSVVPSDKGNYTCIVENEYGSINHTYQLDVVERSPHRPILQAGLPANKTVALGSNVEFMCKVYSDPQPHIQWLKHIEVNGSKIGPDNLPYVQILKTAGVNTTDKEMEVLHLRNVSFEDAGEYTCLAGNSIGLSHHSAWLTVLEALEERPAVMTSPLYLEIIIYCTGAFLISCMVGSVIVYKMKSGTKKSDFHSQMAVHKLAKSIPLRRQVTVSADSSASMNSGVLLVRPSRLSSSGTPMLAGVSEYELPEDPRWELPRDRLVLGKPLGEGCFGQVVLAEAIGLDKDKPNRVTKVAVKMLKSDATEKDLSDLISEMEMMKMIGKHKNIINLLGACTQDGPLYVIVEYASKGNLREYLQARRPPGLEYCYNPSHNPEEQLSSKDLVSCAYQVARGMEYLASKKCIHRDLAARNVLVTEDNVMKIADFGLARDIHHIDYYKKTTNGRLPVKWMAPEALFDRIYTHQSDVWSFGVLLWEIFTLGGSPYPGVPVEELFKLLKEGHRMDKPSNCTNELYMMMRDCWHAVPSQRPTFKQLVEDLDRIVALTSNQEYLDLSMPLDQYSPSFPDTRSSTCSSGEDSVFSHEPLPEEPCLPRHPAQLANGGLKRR
Fyn, sequence (P06241 whole entry, looked up, the tested form may be a part): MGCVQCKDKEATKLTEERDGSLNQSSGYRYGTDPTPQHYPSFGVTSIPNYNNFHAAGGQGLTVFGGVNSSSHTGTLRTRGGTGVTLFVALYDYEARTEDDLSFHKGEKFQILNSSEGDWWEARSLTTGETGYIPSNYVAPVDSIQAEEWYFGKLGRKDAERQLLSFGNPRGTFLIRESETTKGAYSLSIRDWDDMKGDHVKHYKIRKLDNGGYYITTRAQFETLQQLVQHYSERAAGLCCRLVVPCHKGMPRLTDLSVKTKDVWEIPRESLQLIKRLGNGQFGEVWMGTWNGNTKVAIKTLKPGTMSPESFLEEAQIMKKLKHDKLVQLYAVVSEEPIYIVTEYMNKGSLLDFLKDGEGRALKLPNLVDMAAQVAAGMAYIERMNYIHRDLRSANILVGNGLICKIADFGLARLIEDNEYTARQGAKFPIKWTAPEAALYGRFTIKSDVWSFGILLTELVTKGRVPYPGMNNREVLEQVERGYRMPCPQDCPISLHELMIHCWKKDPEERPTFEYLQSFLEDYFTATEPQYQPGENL
Grb2 SH2, sequence (P62993 whole entry, looked up): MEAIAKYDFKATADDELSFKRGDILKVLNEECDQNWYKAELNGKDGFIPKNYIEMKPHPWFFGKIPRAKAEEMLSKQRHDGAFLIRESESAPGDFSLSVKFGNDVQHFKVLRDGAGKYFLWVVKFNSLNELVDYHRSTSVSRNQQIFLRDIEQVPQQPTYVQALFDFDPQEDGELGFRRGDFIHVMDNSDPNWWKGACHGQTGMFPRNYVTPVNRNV

| Sequence | SH2 binding enrichment [1] | SH2 binding enrichment [2] | SH2 binding enrichment [3] | phosphorylation enrichment [4] | phosphorylation enrichment [5] | phosphorylation enrichment [6] | phosphorylation enrichment [7] | phosphorylation enrichment [8] | phosphorylation enrichment [9] | phosphorylation enrichment [10] | phosphorylation enrichment [11] | phosphorylation enrichment [12] | phosphorylation enrichment [13] | phosphorylation enrichment [14] | phosphorylation enrichment [15] | phosphorylation enrichment [16] |
| --- | --- | --- | --- | --- | --- | --- | --- | --- | --- | --- | --- | --- | --- | --- | --- | --- |
| WNNLDYMDSRR [GAA_Y407_D404N] | 0.527 | 1.43 | 0.861 | 0.636 | 0.498 | 0.749 | 0.964 | 0.538 | 0.392 | 0.581 | 0.914 | 0.572 | 0.412 | 0.907 | 0.821 | 0.464 |
| GQDLFYEDEDL [PACS1_Y303] | 0.588 | 0.636 | 0.711 | 1.24 | 1.79 | 1.43 | 1.28 | 0.626 | 0.746 | 0.839 | 0.922 | 0.737 | 0.598 | 1.39 | 0.628 | 0.688 |
| LGSVVYAQSKE [KCNQ2_Y226_H228Q] | 0.528 | 1.6 | 0.974 | 1.39 | 0.99 | 1.19 | 1.61 | 0.852 | 1.1 | 1.24 | 1.86 | 1.29 | 1.08 | 1.31 | 0.97 | 1.08 |
| QRIHNYYEHRY [HCN4_Y554_D553N] | 1.7 | 2.06 | 1.71 | 3.62 | 0.65 | 0.724 | 1.36 | 3.79 | 1.62 | 0.791 | 2.91 | 1.33 | 0.769 | 1.63 | 2.88 | 0.68 |
| DFTSRYLSASD [PKHD1_Y828_N830S] | 0.527 | 0.713 | 0.694 | 0.605 | 0.42 | 0.625 | 0.79 | 0.535 | 0.46 | 0.546 | 0.549 | 0.453 | 0.329 | 0.846 | 0.564 | 0.466 |
| KVVVPYEPPEV [TP53_Y220_S215K] | 0.86 | 0.472 | 0.709 | 0.632 | 0.38 | 1 | 0.921 | 0.442 | 0.402 | 1.02 | 0.452 | 0.406 | 0.408 | 0.866 | 0.573 | 0.458 |
| IGRGSYAKVLL [PRKCZ_Y263] | 5.41 | 11.5 | 0.996 | 0.394 | 0.375 | 0.458 | 0.611 | 0.348 | 0.452 | 0.468 | 0.363 | 0.419 | 0.34 | 0.545 | 0.367 | 0.384 |
| MEVEQYIFVKC [CYBB_Y324_G322E] | 0.513 | 0.599 | 0.725 | 1.99 | 0.679 | 1.53 | 1.74 | 1.98 | 0.509 | 1.04 | 1.03 | 0.71 | 0.594 | 1.64 | 0.868 | 0.575 |
| KVNKIYYPDFI [LIG3_Y767] | 0.636 | 0.695 | 0.834 | 3.46 | 0.481 | 0.68 | 0.727 | 4.13 | 1.05 | 0.589 | 0.536 | 0.668 | 0.724 | 0.762 | 0.45 | 0.607 |
| RHIEKYVDQGK [IRAK3_Y61] | 0.605 | 0.834 | 0.993 | 0.633 | 0.593 | 0.857 | 0.771 | 0.512 | 0.59 | 0.783 | 0.577 | 0.74 | 0.687 | 0.833 | 0.318 | 0.533 |
| CTLTHYKSAVK [ASNS_Y555_R550C] | 0.585 | 0.682 | 0.942 | 0.529 | 0.51 | 0.689 | 0.807 | 0.514 | 0.428 | 0.529 | 0.564 | 0.518 | 0.408 | 0.749 | 0.431 | 0.387 |
| AGRTGYDNREI [BCL2_Y9] | 0.504 | 0.718 | 0.779 | 0.509 | 0.5 | 0.848 | 0.779 | 0.461 | 0.429 | 0.974 | 0.392 | 0.367 | 0.537 | 0.955 | 0.394 | 0.427 |
| IEELTYVIKQD [STX5_Y137_I138V] | 0.354 | 0.602 | 0.654 | 0.954 | 0.54 | 1.18 | 1.23 | 0.515 | 0.363 | 0.705 | 0.643 | 0.528 | 0.691 | 1.26 | 0.659 | 0.494 |
| PYVYYYSYLLK [PTEN_Y178_R173P] | 0.669 | 0.598 | 0.873 | 6.37 | 1.1 | 4.21 | 1.99 | 6.02 | 5.9 | 3.68 | 3.56 | 3.46 | 3.14 | 1.87 | 1.92 | 1.88 |
| EFLRNYFTDKA [DSG2_Y775] | 0.444 | 1.03 | 1.03 | 0.622 | 0.573 | 0.962 | 1.09 | 0.569 | 0.567 | 0.764 | 0.572 | 0.414 | 0.528 | 1.08 | 0.472 | 0.48 |
| LEGAKYVSHGA [ASS1_Y113_R108L] | 0.446 | 0.516 | 1.18 | 1.17 | 0.928 | 0.696 | 0.835 | 1 | 0.551 | 0.852 | 0.682 | 0.606 | 0.605 | 1.14 | 1.03 | 0.973 |
| FTNELYMMMRD [FGFR1_Y730_C725Y_YF] | 0.604 | 0.661 | 0.844 | 1.53 | 0.752 | 0.938 | 1.37 | 1.54 | 3.53 | 0.57 | 3.18 | 1.99 | 1.29 | 1.24 | 1.69 | 1.1 |

| Sequence | SH2 binding enrichment [1] | SH2 binding enrichment [2] | SH2 binding enrichment [3] | phosphorylation enrichment [4] | phosphorylation enrichment [5] | phosphorylation enrichment [6] | phosphorylation enrichment [7] | phosphorylation enrichment [8] | phosphorylation enrichment [9] | phosphorylation enrichment [10] | phosphorylation enrichment [11] | phosphorylation enrichment [12] | phosphorylation enrichment [13] | phosphorylation enrichment [14] | phosphorylation enrichment [15] | phosphorylation enrichment [16] |
| --- | --- | --- | --- | --- | --- | --- | --- | --- | --- | --- | --- | --- | --- | --- | --- | --- |
| LTRDIYKNDYY [ROS1_Y2110_A2106T] | 1.53 | 0.906 | 1.35 | 3.61 | 1 | 2.28 | 2.28 | 5.83 | 0.839 | 1.21 | 2.15 | 1.48 | 2.86 | 1.88 | 2.79 | 1.82 |
| SEASYYKSLNL [NGEF_Y289] | 0.588 | 0.644 | 0.718 | 0.979 | 0.497 | 1.1 | 0.827 | 1.29 | 0.659 | 0.615 | 0.499 | 0.643 | 0.515 | 0.793 | 0.56 | 0.539 |
| CYVYYYSYLLK [PTEN_Y178_R173C] | 0.68 | 0.543 | 0.864 | 1.79 | 0.669 | 1.53 | 1.5 | 1.8 | 1.17 | 1.66 | 1.15 | 0.949 | 1.47 | 1.81 | 0.792 | 0.734 |
| LSRDVYEEDSF [RET_Y900_YF] | 0.769 | 0.805 | 0.778 | 0.89 | 0.946 | 1.7 | 1.77 | 0.813 | 0.819 | 1.57 | 1.07 | 0.875 | 0.828 | 2.02 | 0.908 | 0.573 |
| IFETDYFQKGG [INSR_Y1189_R1191Q_YF] | 0.492 | 0.438 | 0.948 | 0.876 | 0.358 | 0.981 | 1.24 | 0.468 | 0.386 | 0.662 | 0.421 | 0.473 | 0.492 | 1.01 | 0.401 | 0.502 |
| QNWELYSEGLG [CNKSR1_Y665_R662W] | 0.628 | 0.771 | 0.958 | 0.746 | 0.869 | 1.13 | 1.37 | 0.744 | 2.26 | 0.751 | 5.52 | 4.32 | 2.08 | 1.07 | 5.04 | 3.04 |
| KWELRYMHSRV [ABCD1_Y281_G277W] | 0.716 | 0.878 | 1.06 | 0.685 | 0.457 | 1.07 | 1.09 | 0.393 | 0.369 | 0.759 | 0.517 | 0.474 | 0.37 | 1.31 | 0.528 | 0.458 |
| ITSLLYHVVGW [GBA_Y412_N409S] | 0.959 | 1.22 | 1.14 | 5 | 2.94 | 2.57 | 1.32 | 5.64 | 7.37 | 2 | 5.12 | 4.74 | 3.6 | 1.31 | 2.99 | 3.16 |
| AVEDQYYRVDC [FHL1_Y207_C209R] | 0.724 | 0.92 | 0.949 | 6.95 | 0.718 | 1.87 | 3.59 | 8.7 | 0.622 | 0.844 | 0.831 | 0.908 | 1.6 | 1.46 | 0.701 | 0.982 |
| GCVRMYELVHR [GLE1_Y135] | 2.25 | 0.908 | 1.06 | 0.71 | 4.34 | 1.01 | 1.07 | 0.498 | 2.95 | 0.754 | 7.65 | 1.64 | 0.761 | 1.28 | 3.69 | 0.599 |
| AASTDYFKRGD [PDHA1_Y242_YF] | 0.416 | 0.68 | 0.879 | 0.426 | 0.363 | 0.57 | 0.625 | 0.402 | 0.325 | 0.421 | 0.372 | 0.45 | 0.352 | 0.663 | 0.454 | 0.462 |
| WQQQSYLDSVI [CTNNB1_Y30_G34V] | 0.444 | 0.509 | 0.757 | 0.716 | 0.469 | 0.908 | 0.983 | 0.579 | 0.406 | 0.806 | 0.511 | 0.529 | 0.496 | 1.03 | 0.668 | 0.504 |
| VVTGPYEKPSL [KIR3DS1_Y221_L220P] | 0.704 | 0.636 | 0.875 | 0.491 | 0.665 | 0.69 | 1.04 | 0.581 | 0.45 | 0.966 | 0.55 | 0.503 | 0.472 | 0.746 | 0.513 | 0.473 |
| QPGTDYKIYLY [FN1_Y1970] | 0.466 | 0.753 | 0.741 | 0.846 | 0.792 | 1.69 | 1.74 | 0.705 | 0.501 | 1.04 | 0.939 | 0.86 | 0.804 | 1.55 | 0.759 | 0.715 |
| ANKNVYEVEPT [MEGF10_Y1075_R1072K] | 1.59 | 0.941 | 0.821 | 0.7 | 0.36 | 0.848 | 0.823 | 0.383 | 1.04 | 0.6 | 0.516 | 0.798 | 2.9 | 0.938 | 0.492 | 4.42 |
| TNLVPYPCIHF [TUBA1A_Y262_R264C] | 0.591 | 0.802 | 0.894 | 0.66 | 0.517 | 0.753 | 0.975 | 0.546 | 0.578 | 0.646 | 0.599 | 0.534 | 0.519 | 0.96 | 0.557 | 0.492 |
